{"source": "paper PMC10085707", "molecules": {"B1": {"name": "T65 (polydT 65-mer) (ssDNA)", "DNA": "TTTTTTTTTTTTTTTTTTTTTTTTTTTTTTTTTTTTTTTTTTTTTTTTTTTTTTTTTTTTTTTTT"}}, "key": {"[1]": {"biological_target": "SpRadA K101A point mutant (Streptococcus pneumoniae) (UniProt Q8DRP0)", "assay": "negative-stain electron microscopy"}, "[2]": {"biological_target": "SpRadA helicase (Streptococcus pneumoniae RadA), full length (Streptococcus pneumoniae) (UniProt Q8DRP0)", "assay": "negative-stain electron microscopy"}, "[3]": {"biological_target": "SpRecA (Streptococcus pneumoniae, UniProt P0A452 1-388)", "assay": "fluorescence anisotropy"}}}
{"molecule": "SpRadA K101A point mutant (from UniProt Q8DRP0 1-420) (enzyme)", "values": [{"measurement": "stoichiometry N", "setting": "[1]", "result": 6}]}
{"molecule": "SpRadA helicase (Streptococcus pneumoniae RadA), full length (from UniProt Q8DRP0 1-420) (enzyme)", "values": [{"measurement": "stoichiometry N", "setting": "[2]", "result": 6}]}
{"molecule": "B1", "values": [{"measurement": "binding result", "setting": "[3]", "result": "binds"}]}
